Binding signal (% RNA colocalized) data for 1 substance are collected here from article PMC5389562.

This data set has as its target T1, mCherry-U2AF35 (UniProt Q01081).
T1 sequence: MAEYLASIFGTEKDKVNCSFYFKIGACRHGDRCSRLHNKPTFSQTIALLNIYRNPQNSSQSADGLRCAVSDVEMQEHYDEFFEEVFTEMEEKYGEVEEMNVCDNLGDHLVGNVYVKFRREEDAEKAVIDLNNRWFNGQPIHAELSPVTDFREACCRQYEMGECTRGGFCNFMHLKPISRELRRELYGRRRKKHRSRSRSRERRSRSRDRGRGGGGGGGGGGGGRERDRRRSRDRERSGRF
The experiment in a line: single-molecule colocalization/bleaching. To be noted: 5' GMPS; HEK293T nuclear extract expressing fusion proteins, preincubated 15 min with ATP/phosphocreatine or ATP-depleted at 30 C; pre-mRNA 62.5 nM; +ATP reactions ….

Turning to GloC pre-mRNA, the binding signal (% RNA colocalized) was determined as 20.
